Experimental data published in patent US12703930B2, “Systems and methods for identification of MHC-I peptide epitopes” (THE REGENTS OF THE UNIVERSITY OF CALIFORNIA, priority 2020, dated 2026).
Entries after “also recorded” stand apart in the source; their conditions may differ.

Tests used:
TAPBPR/HLA-A02 complexes = biological target: T1, TAPBPR/HLA-A02 complexes (Homo sapiens, UniProt P04439); assay: native gel electrophoresis: release of HLA-A02 from tetramerized TAPBPR/HLA-A02 complexes by peptide; format: binding; details: biotinylated TAPBPR/HLA-A02 tetramerized with Streptavidin-PE; TAX 25, 125 or 2500 pmol; P18-I10 2500 pmol; 12% acrylamide gel
T1 construct: Plasmid DNA encoding the luminal domain of class I MHC (MHC-I) heavy chains H2-D^d, HLA-A*02:01; made in house
Source text: The peptide receptive MHC-I complexes were isolated by gel filtration and tetramerized with Streptavidin-PE.

[1] = test system: murine cells expressing the B4.3.2 TCR, DMF5 human T cells expressing the MART-1 TCR, NY-ESO-1 human T cells expressing the NY-ESO-1 TCR; assay: flow cytometry staining of TCR-expressing cells with pMHC-I tetramers; format: cell-based; details: TAPBPR at up to 1:100 molar ratio with MHC-I
Method: Flow cytometry was performed using commercially available tetramers prepared by currently available methods (“conventional”), as well as by the disclosed methods involving TAPBPR peptide exchange using a stoichiometric amount of TAPBPR (“exchanged stoichiometric”), a catalytic amount of TAPBPR (1:100 TAPBPR: MHC-I) (“exchanged catalytic”) or a mismatched peptide. […]. Tetramers prepared by the disclosed methods performed similarly to tetramers commercially produced using conventional methods.
FIG. 7C illustrates a titration of P18410/H-2D^d binding to B.4.2.3 cells (top), HLA-A*2:01/MART-1 binding to DMF5 cells (middle) and HLA-A*2:01/NY-ESO-1 peptide binding to NY-ESO-1 cells (bottom). The binding compares commercially available pMHC-I tetramers prepared using conventional methods (refolded) with pMHC-I tetramers prepared using the disclosed methods. […]. Data shown is representative of triplicate assays and error-bars are standard deviation from the mean.
Tetramer formation The procedure for production of peptide loaded tetramers using TAPBPR mediated exchange is described in See, e.g., Overall et al., “High Throughput pMHC-I Tetramer Library Production Using Chaperone Mediated Peptide Exchange,” bioRxiv, doi:10.1101/653477 (2019), which is hereby incorporated by reference in its entirety herein. […]

goldilocks/HLA-A*02:01 = goldilocks/HLA-A*02:01 (Homo sapiens, UniProt P04439); assay: native gel electrophoresis assay of TAPBPR-mediated peptide exchange on p*MHC-I; details: overnight incubation, excess peptide of interest, TAPBPR:MHC molar ratio 1:1 down to 1:1000

Substance | release of HLA-A02 proteins from the TAPBPR/HLA-A02 complexes (native gel) (TAPBPR/HLA-A02 complexes) | peptide exchange catalysed by TAPBPR (FIGS. 7A-7C) [1] | peptide exchange on goldilocks/HLA-A*02:01 (formation of pMHC species) (goldilocks/HLA-A*02:01)
RGPGRAFVTI [P18-I10] | showed no HLA-A02 proteins |  | 
TAPBPR: molecular chaperone; recombinant luminal domain expressed in Drosophila S2 cells |  | catalyzes efficient peptide exchange when present at up to 1:100 molar ratio with MHC-I | complete peptide exchange; also recorded: catalyzes efficient peptide exchange when present at up to 1:1000 molar ratio with MHC-I
